From PMC5993529

Legend:
[1] = target: Recombinant human VEGFR1 (human) (UniProt P17948); assay: SPR
[2] = target: Recombinant human VEGFR2 (human) (UniProt P35968); assay: SPR
Chain of UniProt P35968 (P35968 20-764): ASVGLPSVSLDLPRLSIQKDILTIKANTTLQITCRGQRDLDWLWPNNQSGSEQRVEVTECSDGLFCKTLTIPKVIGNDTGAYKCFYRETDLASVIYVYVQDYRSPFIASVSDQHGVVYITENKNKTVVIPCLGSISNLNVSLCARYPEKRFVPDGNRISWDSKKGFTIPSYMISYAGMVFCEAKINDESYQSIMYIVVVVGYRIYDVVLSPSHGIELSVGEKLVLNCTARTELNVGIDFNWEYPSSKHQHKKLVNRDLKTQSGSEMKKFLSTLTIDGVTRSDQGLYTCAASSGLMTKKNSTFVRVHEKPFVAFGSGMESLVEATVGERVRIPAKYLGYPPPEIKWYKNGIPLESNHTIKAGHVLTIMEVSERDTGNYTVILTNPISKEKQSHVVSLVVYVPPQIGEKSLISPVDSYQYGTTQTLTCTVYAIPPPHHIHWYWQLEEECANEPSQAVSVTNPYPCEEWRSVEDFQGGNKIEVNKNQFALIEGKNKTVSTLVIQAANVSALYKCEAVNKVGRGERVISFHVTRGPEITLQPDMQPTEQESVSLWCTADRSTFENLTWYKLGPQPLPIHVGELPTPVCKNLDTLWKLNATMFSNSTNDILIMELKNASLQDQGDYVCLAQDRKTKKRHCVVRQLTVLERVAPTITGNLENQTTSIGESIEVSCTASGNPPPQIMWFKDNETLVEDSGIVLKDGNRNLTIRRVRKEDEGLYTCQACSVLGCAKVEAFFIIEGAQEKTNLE

Chain of UniProt P17948 (P17948 27-758): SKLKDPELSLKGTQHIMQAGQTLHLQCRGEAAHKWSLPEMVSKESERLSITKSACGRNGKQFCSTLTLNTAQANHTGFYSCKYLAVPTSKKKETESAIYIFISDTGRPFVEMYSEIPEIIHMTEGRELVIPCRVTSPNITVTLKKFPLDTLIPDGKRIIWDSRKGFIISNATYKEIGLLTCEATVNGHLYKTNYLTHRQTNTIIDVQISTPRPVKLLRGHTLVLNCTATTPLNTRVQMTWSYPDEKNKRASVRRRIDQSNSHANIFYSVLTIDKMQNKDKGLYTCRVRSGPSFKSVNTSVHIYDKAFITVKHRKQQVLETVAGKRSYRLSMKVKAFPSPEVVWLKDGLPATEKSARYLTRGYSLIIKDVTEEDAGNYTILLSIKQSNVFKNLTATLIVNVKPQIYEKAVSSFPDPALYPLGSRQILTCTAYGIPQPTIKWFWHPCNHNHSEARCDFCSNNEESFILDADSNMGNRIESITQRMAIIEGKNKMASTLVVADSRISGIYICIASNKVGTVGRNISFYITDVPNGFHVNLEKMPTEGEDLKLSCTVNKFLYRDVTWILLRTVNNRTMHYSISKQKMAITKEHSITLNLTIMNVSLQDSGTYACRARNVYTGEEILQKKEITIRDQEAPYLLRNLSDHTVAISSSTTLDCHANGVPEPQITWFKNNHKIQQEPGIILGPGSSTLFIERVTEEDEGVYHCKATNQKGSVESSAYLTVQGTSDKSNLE

- Kd [1]: 0.0231 nM
- Kd [2]: 0.398 nM
Substance: Recombinant human VEGFA (from UniProt P15692 1-395) (ligand)
